Laboratory results published in patent US6599706B1, “Recombinant PR-3 and assays employing the same” (Chiron Corporation, priority 1994, dated 2003).

Experiments:
[1] = Enzymatic activity of purified recombinant PR-3 on Boc-Ala-ONP; format: biochemical, human
Method: In order to generate therapeutic-grade PR-3, the Mono-S purified recombinant PR-3 (obtained as described in Example 16) was subjected to size-exclusion chromatography. 0.8 mg of protein from the Mono-S pool was concentrated to 2 mg/ml by Amicon YM10 ultrafiltration and loaded onto a S-300 HR column (1.6×60 cm. Pharmacia Biotechnology, Inc., NJ) and chromatographed with a mobile phase of PBS containing 0.04% Triton X-100. Fractions enriched in PR-3 were detected by assaying for enzymatic activity (Boc-Ala-ONP assay) and analyzing on SDS-PAGE with Coomassie blue staining. A single band of 28 kD was observed. The PR-3 eluted with a retention time correlating to an apparent molecular mass of 35 kD as compared to BSA and chymotrypsinogen A chromatographed in the same buffer. This process produced PR-3 that was ≧95% pure with an overall recovery of about 25% and a lipopolysaccharide content of ≦about 10 ng per mg of protein as measured using an Limulus Amoebocyte Lysate Assay (Associates of Cape Cod, Inc., Woods Hole, Mass.). The purified enzyme has a specific activity of approximately 30 units per mg (where a unit is defined as 1 micromole of product produced from cleavage of Boc-Ala-ONP permin. at 25° C., pH 7.5) and a Kcat of approximately 12 per second.

[2] = Storage stability of active recombinant PR-3; format: physicochemical; settings: 4° C.; phosphate buffer pH 7.0 with 0.1% Triton X-100, NaCl eluate
Method: The proPR-3 was purified as described above through the Mono-S-Sepharose step and the DPPI activation. At the end of the activation reaction, the PR-3 was diluted 3-fold using deionized water and loaded onto a Pharmacia Mono-S column, previously equilibrated in loading buffer B (10 mM sodium phosphate buffer, pH 7.0, containing 0.1% (v/v) Triton X-100). After washing the column with three bed volumes of loading buffer B, the column was eluted with a 20-minute, 0-0.8 M sodium chloride gradient at 1 ml/min flow rate. PR-3 eluted as the only major peak of protein in the gradient. PR-3 activity was measured across the column by diluting 10 μl of each fraction into 100 mM sodium phosphate buffer containing 10% acetonitrile and 0.5 mM Boc-Ala-ONp. The absorbance at 402 nm of each assay sample was measured after approximately 10 min. Fractions containing activated PR-3 were pooled and stored at 4° C. […] The active PR-3 was stable over 1 month at 4° C. under these conditions

B1: PR-3: purified active recombinant human PR-3 serine protease produced from proPR-3 in Sf9 cells, activated with DPPI (protein)
chain: MAHRPPSPALASVLLALLLSGAARAAEIVGGHEAQPHSRPYMASLQMRGNPGSHFCGGTLIHPSFVLTAAHCLRDIPQRLVNVVLGAHNVRTQEPTQQHFSVAQVFLNNYDAENKLNDILLIQLSSPANLSASVATVQLPQQDQPVPHGTQCLAMGWGRVGAHDPPAQVLQELNVTVVTFFCRPHNICTFVPRRKAGICFGDSGGPLICDGIIQGIDSFVIWGCATRLFPDFFTRVALYVDWIRSTLRRVEAKGRP
Kcat ([1]; Boc-Ala-ONP): approximately 12 per second
specific activity ([1]; unit = 1 micromole product per min at 25° C., pH 7.5): approximately 30 units per mg
stability on storage [2]: over 1 month
